Key:
[1] = target: T1, FLAG-SOX4 (Mus musculus, UniProt Q06831 1-440); test: EMSA; more robust binding than HNF4A; EMSA: 10 mM Tris-HCl pH 7.5, 1 mM MgCl2, 1 mM DTT, 50 mM KCl, 0.3 mg/ml BSA, 5% glycerol, RT 30 min; 5% native PAGE in 0.5x TBE; conditions: protein: recombinant; label: Cy5 5'-end; blunt
[2] = target: T1, FLAG-SOX4; test: competition; SOX4 displaces pre-bound HNF4A (30 nM); value is the effective SOX4 concentration; EMSA: 10 mM Tris-HCl pH 7.5, 1 mM MgCl2, 1 mM DTT, 50 mM KCl, 0.3 mg/ml BSA, 5% glycerol, RT 30 min; 5% native PAGE in 0.5x TBE; conditions: protein: recombinant; label: Cy5 5'-end; blunt
[3] = target: T2, MYC-FLAG-HNF4A (Mus musculus, UniProt P49698 1-474); test: EMSA; EMSA: 10 mM Tris-HCl pH 7.5, 1 mM MgCl2, 1 mM DTT, 50 mM KCl, 0.3 mg/ml BSA, 5% glycerol, RT 30 min; 5% native PAGE in 0.5x TBE; conditions: protein: commercial; tags: MYC-FLAG; chain copies: 2; label: Cy5 5'-end; blunt
T2 sequence: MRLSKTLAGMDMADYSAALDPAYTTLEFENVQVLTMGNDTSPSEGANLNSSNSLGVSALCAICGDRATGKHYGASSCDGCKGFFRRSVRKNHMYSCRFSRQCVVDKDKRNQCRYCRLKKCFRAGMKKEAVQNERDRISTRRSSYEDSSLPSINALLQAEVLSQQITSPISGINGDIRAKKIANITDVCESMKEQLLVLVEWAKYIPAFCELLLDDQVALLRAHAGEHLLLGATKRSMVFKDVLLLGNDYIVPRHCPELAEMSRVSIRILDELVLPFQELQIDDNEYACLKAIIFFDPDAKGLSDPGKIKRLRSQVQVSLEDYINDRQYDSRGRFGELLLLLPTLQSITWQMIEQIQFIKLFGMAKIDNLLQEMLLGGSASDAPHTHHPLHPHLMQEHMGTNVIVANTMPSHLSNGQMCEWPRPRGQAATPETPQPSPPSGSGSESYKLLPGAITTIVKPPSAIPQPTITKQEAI

Measured: binding result

T1 sequence (Q06831 whole entry): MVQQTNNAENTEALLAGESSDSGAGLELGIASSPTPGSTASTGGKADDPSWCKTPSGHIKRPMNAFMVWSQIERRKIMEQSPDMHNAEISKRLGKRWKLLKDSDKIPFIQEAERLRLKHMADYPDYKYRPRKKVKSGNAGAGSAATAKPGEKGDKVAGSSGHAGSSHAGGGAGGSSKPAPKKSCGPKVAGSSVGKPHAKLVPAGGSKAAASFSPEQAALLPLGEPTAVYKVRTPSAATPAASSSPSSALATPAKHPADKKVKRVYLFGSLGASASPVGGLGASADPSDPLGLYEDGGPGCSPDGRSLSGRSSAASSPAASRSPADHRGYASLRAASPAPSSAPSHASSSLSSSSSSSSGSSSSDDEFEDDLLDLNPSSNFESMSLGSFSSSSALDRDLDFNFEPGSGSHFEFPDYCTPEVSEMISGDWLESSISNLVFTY

B1: Cyp2e1 distal enhancer WT (HNF4A motif) (dsDNA)
DNA 1: ATCTCTGGGACAAAGTATAGAGAAG
DNA 2: CTTCTCTATACTTTGTCCCAGAGAT
binds: all assays above

— PMC10897393, “Cellular reprogramming in vivo initiated by SOX4 pioneer factor activity”
